The values that follow come from patent US11433139B2, “Peptide vaccines against interleukin-31” (Zoetis Services LLC, priority 2018, dated 2022).

Where a chain is given by its changes, count along the chain named. “Also recorded” adds a separate entry of the source.

To fix the notation:
B1: Feline 15H05 1.1 FW3: FEL_15H05_VH1 with FEL_15H05_VL1_FW3 (antibody, V domains shown)
VH: QVLLVQSGAEVRTPGASVKIFCKASGYSFTSYTIHWLRQAPAQGLEWMGNINPTSGYTENNQRFKDRLTLTADTSTNTAYMELSSLRSADTAMYYCARWGFKYDGEWSFDVWGAGTTVTVSS
VL: EIQMTQSPSSLSASPGDRVTITCRASQGISIWLSWYQQKPGKVPKLLIYKASNLHIGVPPRFSGSGSGTHFTLTITSLQPEDIATYYCLQSQTYPLTFGGGTKLEIK
B2: Feline 15H05_VH1 mouse VL: heterochimeric antibody, FEL_15H05_VH1 with MU_15H05_VL (antibody, V domains shown)
VH: B1 VH
VL: DIQMNQSPSSLSASLGDTITVTCRASQGISIWLSWYQQKPGNIPKVLINKASNLHIGVPPRFSGSGSGTHFTLTITSLQPEDIATYYCLQSQTYPLTFGGGTKLEIN
B3: Feline 15H05 1.1 FW2: FEL_15H05_VH1 with FEL_15H05_VL1_FW2 (antibody, V domains shown)
VH: B1 VH
VL: B1 VL with K42N, V43I, L46V, Y49N, P60S, H70D, T76S, Q79E, I83A
B4: Feline 15H05 1.1 FW1: FEL_15H05_VH1 with FEL_15H05_VL1_FW1 (antibody, V domains shown)
VH: B1 VH
VL: B2 VL with N42K, I43V, V46L, N49Y, P60S, H70D, T76S, Q79E, I83A, N107K
B5: Feline 15H05 1.1_FW1_2: FEL_15H05_VH1 with FEL_15H05_VL1_FW1_FW2 (antibody, V domains shown)
VH: B1 VH
VL: B2 VL with P60S, H70D, T76S, Q79E, I83A, N107K
B6: Feline 15H05 1.1 FW1_3: FEL_15H05_VH1 with FEL_15H05_VL1_FW1_FW3 (antibody, V domains shown)
VH: B1 VH
VL: B2 VL with N42K, I43V, V46L, N49Y, N107K
B7: Feline 15H05_VH3 mouse VL: heterochimeric antibody, FEL_15H05_VH3 with MU_15H05_VL (antibody, V domains shown)
VH: B1 VH with T13K, A42E
VL: B2 VL
B8: Feline 15H05 1.1: felinized 15H05, FEL_15H05_VH1 with FEL_15H05_VL1 (antibody, V domains shown)
VH: B1 VH
VL: B1 VL with P60S, H70D, T76S, Q79E, I83A
B9: Feline 15H05 2.2: felinized 15H05, FEL_15H05_VH2 with FEL_15H05_VL2 (antibody, V domains shown)
VH: B1 VH with S28G, L37V, A40S
VL: EITMTQSPGSLAGSPGQQVTMNCRASQGISIWLSWYQQKPGQHPKLLIYKASNLHIGVPDRFSGSGSGTDFTLTISNLQAEDVASYYCLQSQTYPLTFGGGTKLEIK
B10: Feline 15H05 3.2: felinized 15H05, FEL_15H05_VH3 with FEL_15H05_VL2 (antibody, V domains shown)
VH: B1 VH with T13K, A42E
VL: B9 VL
B11: ZIL154: fully canine anti IL-31 antibody, VH SEQ ID NO: 99, VL SEQ ID NO: 101 (antibody, listed as Canis familiaris, V domains shown)
VH: EVHLVESGGDLVKPWGSLRLSCVASGFTFSDRGMSWVRQSPGKGLQWVAYIRYDGSRTDYADAVEGRFTISRDNAKNTLYLQMNSLRAEDTAVYYCARWDGSSFDYWGQGTLVTVSS
VL: DIVVTQTPLSLSVSPGETASFSCKASQSLLHSDGNTYLDWFRQKPGQSPQRLIYKVSNRDPGVPDRFSGSGSGTDFTLRISGVEADDAGLYYCMQAIHFPLTFGAGTKVELK
B12: ZIL11: fully canine anti IL-31 antibody, VH SEQ ID NO: 87, VL SEQ ID NO: 89 (antibody, listed as Canis familiaris, V domains shown)
VH: EVQLVESGGDLVKPAGSLRLSCVASGFTFRTYVMNWVRQAPGKGLQWVASINGGGSSPTYADAVRGRFTVSRDNAQNSLFLQMNSLRAEDTAVYFCVVSMVGPFDYWGQGTLVTVSS
VL: SSVLTQPPSVSVSLGQTATISCSGESLSNYYAQWFQQKAGQAPVLVIYKDTERPSGIPDRFSGSSSGNTHTLTISGARAEDEADYYCESAVSSDTIVFGGGT

feline IL-31, sequence (as listed by the source): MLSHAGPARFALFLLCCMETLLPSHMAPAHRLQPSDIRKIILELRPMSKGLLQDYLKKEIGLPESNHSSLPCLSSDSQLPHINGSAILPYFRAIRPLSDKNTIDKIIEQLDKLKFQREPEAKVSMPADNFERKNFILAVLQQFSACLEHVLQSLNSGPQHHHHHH
canine IL-31, sequence (as listed by the source): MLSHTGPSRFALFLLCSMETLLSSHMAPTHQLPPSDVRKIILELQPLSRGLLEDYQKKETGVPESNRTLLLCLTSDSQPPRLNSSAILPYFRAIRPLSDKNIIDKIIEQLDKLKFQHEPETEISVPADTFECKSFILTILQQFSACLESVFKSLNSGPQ

The first assay has as its target feline IL-31. The experiment in a line: Affinity of anti-IL-31 antibodies by surface plasmon resonance (Biacore), feline IL-31 surface. The settings on record: IL-31 conjugated to the surface (FIG. 2). It is filed as binding. How it is done:
(§1) The affinity with which candidate mAbs bind canine and feline IL-31 was determined using surface plasmon resonance (SPR) on a Biacore system (Biocore Life Sciences (GE Healthcare), Uppsala, Sweden). To avoid affinity differences associated with differential surface preparation that can occur when immobilizing antibodies to surfaces; a strategy was employed where IL-31 was directly conjugated to the surface. Immobilization was obtained by amine coupling 5 μg/mL IL-31 using N-hydroxysuccinimide (NHS)/1-Ethyl-3-(3-dimethylaminopropyl) carbodiimide (EDC) chemistry. Chips were quenched with ethanolamine and the affinity with which all candidate mAbs bound to the immobilized IL-31 was evaluated. All curves were fit to a 1:1 model. Affinity constants (KD) less than 1×10^−11M (1E-11 M) are below the lower limit of quantitation of detection for the instrument. Results for affinity measurements are described herein.
For orientation: SPR reads the build-up and loss of mass on a sensor chip optically.
With B1, the “affinity (KD) to feline IL-31” value is listed as “excellent affinity”. As for B2, the “affinity (KD) to feline IL-31” value is “restored the affinity to feline IL-31 to equivalent or better than the mouse and chimeric forms”. Turning to B3, the “affinity (KD) to feline IL-31” value is “excellent affinity; also recorded: increased affinity”. Regarding B4, the “affinity (KD) to feline IL-31” value was “detrimental to the affinity”. For the molecule B5, the “affinity (KD) to feline IL-31” value is recorded as “good affinity”. For B6, the “affinity (KD) to feline IL-31” value was “good affinity”.

Take B7: the “affinity (KD) to feline IL-31” value was “restored the affinity to feline IL-31 to equivalent or better than the mouse and chimeric forms”.

The target of another assay is canine IL-31. The experiment in a line: Affinity of anti-IL-31 antibodies by surface plasmon resonance (Biacore), canine IL-31 surface. It is filed as binding. The settings on record: IL-31 conjugated to the surface (FIG. 2). How it is done:
as §1
For B8, the “affinity (KD) to canine IL-31” value is given as “neutral to positive impact on affinity”.

Regarding B1, the “affinity (KD) to canine IL-31” value is “excellent affinity”.

As for B2, the “affinity (KD) to canine IL-31” value was “improved affinity”. Take B3: the “affinity (KD) to canine IL-31” value is reported as “excellent affinity; also recorded: increased affinity”. On to B4, for which the “affinity (KD) to canine IL-31” value was “detrimental to the affinity”.

For the molecule B9, the “affinity (KD) to canine IL-31” value is reported as “neutral to positive impact on affinity”. Regarding B10, the “affinity (KD) to canine IL-31” value is reported as “neutral to positive impact on affinity”.

Take B5: the “affinity (KD) to canine IL-31” value is on record as “good affinity”. As for B6, the “affinity (KD) to canine IL-31” value is “good affinity”. Turning to B7, the “affinity (KD) to canine IL-31” value was “improved affinity”.

The subject of the next assay is wildtype feline IL-31. The experiment in a line: Indirect ELISA, binding to wildtype feline IL-31.
Details: not given
On the procedure: (§2) Mice and dogs were immunized with recombinant canine IL-31 (SEQ ID No. 155) for the purpose of identifying antibodies. Serum antibody titers from immunized animals were determined using an enzyme linked immunosorbent assay (ELISA). Canine or feline IL-31 (50 ng/well) was immobilized to polystyrene microplates and used as a capture antigen. Serum from immunized animals was diluted in phosphate buffered saline with 0.05% tween-20 (PBST). The presence of anti-IL-31 antibodies was detected with an appropriate secondary HRP labeled antibody. Following addition of a chromogenic substrate (SureBlue Reserve TMB 1-Component Microwell Peroxidase Substrate, KPL, Inc., Gaithersburg, Md.) and a ten minute incubation at room temperature (RT) the reaction was stopped with the addition of […] of 0.1 N HCl. The absorbance of each well was determined at an optical density (OD) of 450 nm. Antibodies were selected for their ability to bind canine and feline IL-31 using an ELISA. In some cases, further characterization was performed at the time of selection using an ELISA with a mutant form of the feline IL-31 protein as a capture antigen. Cells producing antibodies with desired binding and inhibitory properties were chosen for sequence analysis of RNA transcripts representing the variable heavy (VH) and variable light (VL) IgG chains.
(§3) For the indirect ELISA method, antibody binding to wildtype and feline IL-31 15H05 mutant proteins was assessed. […] In comparison, the 11E12 antibody bound to the wild-type feline IL-31 and its binding was not impacted by the mutations in the 15H05 epitope region as evidenced by the data in FIG. 4. To confirm binding, biacore analysis was performed using canine, feline, equine, human, feline 15H05 mutant, and feline 11E12 mutant IL-31 proteins as surfaces and a single test concentration of antibody. Similar to ELISA observations, all antibodies tested bound to wildtype feline IL-31. In agreement with the data described above in this section, mouse antibodies 11 E12 and 15H05 both bound to canine and feline IL-31 surfaces. […] From this group of nine fully canine antibodies, only ZIL1 and ZIL9 cross-reacted with equine IL-31. Of note, antibody 15H05 was the only one of all assayed herein that bound to canine, feline, and equine IL-31 indicating some level of epitope conservation across the three species. In contrast, none of the antibodies described herein bound to human IL-31. Additional biacore surfaces were used to verify ELISA observations showing differential binding of antibodies to wildtype feline IL-31 and two proteins with mutations in the 15H05 (15H05 mutant) or 11 E12 (11E12 mutant) epitopes. […] Differing results can be attributed to differences in the two assay methodologies.
(§4) To determine the impact of mAbs 11E12 and 15H05 ability to bind these mutant forms of feline IL-31, an indirect ELISA was run using the mutants directly coated on to an immunoassay plate. […] The minor attenuation of mAb 15H05s binding to the 11E12 mutant is likely due to translational effects of the mutations from movement of the two front helices effecting the 15H05 binding site. The mutations designed to affect mAb 15H05s binding (mutant 15H05) show a complete loss of mAb 1505s ability to bind this IL-31 mutant by ELISA. Unlike the 11E12 mutant, the changes in the random coil recognized by mAb 15H05 (mutant 15H05) had no impact on mAb 11E12 binding further supporting the distinction between the two epitopes (FIG. 6C).
For B11, the “binding to wildtype feline IL-31 (ELISA)” value is on record as “capable of binding”. B12: the “binding to wildtype feline IL-31 (ELISA)” value is “capable of binding”.

The next assay relates to feline IL-31 15H05 mutant. The assay can be described thus: Indirect ELISA, binding to feline IL-31 15H05 mutant. The settings on record: compared with wildtype. How it is done: as §2, §3, §4
feline IL-31 15H05 mutant, sequence (as listed by the source, change not shown): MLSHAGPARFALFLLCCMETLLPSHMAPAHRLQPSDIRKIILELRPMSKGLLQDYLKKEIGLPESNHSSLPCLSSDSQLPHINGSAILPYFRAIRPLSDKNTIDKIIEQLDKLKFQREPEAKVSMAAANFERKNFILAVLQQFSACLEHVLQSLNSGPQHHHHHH
In general terms: In an ELISA, binding on a coated surface is turned into a signal by an enzyme label.
For B11, the “binding to feline IL-31 15H05 mutant (ELISA)” value is reported as “binding was impacted”. Regarding B12, the “binding to feline IL-31 15H05 mutant (ELISA)” value is “binding was impacted”.
